Assays:
[1] = target: Simplagrin (Simulium platelet aggregation inhibitor), recombinant (Simulium nigrimanum) (UniProt D1FQ14); test: SPR; kinetics: Simplagrin as ligand, RGQOGVMGF peptide as analyte (1-500 nM), 30 µL/min for 180 s, dissociation 600 s, global 1:1 model
[2] = target: Simplagrin (Simulium platelet aggregation inhibitor), recombinant (Simulium nigrimanum) (UniProt D1FQ14); test: SPR; steady state: Simplagrin immobilised on CM5 (500 RU), soluble collagens as analyte, HBS-P; KD as the analyte concentration at 50% of saturation
[3] = target: Soluble human collagen type III (human) (UniProt P02461); test: SPR; Simplagrin-CT with collagen type I and III; who was immobilised is not told in what was shown
[4] = target: Soluble human collagen type I (human) (UniProt P02452); test: as above
[5] = target: Soluble human collagen type VI (human, UniProt P12109 20-1028; P12110 21-1019; P12111 26-3177); test: SPR; steady state: Simplagrin immobilised on CM5 (500 RU), soluble collagens as analyte, HBS-P; KD as the analyte concentration at 50% of saturation; details: both partners purified
[6] = target: T1, Soluble human collagen type I (human, UniProt P02452 162-1218; P08123 80-1119); test: as above; details: both partners purified
T1 construct: also called Collagen-I; Col-I; source: bought: R&D Systems

[7] = target: T2, Soluble human collagen type III (human, UniProt P02461 154-1221); test: as above; details: both partners purified
T2 construct: also called Collagen-III; collagen III; source: bought: R&D Systems
T2 sequence (looked up): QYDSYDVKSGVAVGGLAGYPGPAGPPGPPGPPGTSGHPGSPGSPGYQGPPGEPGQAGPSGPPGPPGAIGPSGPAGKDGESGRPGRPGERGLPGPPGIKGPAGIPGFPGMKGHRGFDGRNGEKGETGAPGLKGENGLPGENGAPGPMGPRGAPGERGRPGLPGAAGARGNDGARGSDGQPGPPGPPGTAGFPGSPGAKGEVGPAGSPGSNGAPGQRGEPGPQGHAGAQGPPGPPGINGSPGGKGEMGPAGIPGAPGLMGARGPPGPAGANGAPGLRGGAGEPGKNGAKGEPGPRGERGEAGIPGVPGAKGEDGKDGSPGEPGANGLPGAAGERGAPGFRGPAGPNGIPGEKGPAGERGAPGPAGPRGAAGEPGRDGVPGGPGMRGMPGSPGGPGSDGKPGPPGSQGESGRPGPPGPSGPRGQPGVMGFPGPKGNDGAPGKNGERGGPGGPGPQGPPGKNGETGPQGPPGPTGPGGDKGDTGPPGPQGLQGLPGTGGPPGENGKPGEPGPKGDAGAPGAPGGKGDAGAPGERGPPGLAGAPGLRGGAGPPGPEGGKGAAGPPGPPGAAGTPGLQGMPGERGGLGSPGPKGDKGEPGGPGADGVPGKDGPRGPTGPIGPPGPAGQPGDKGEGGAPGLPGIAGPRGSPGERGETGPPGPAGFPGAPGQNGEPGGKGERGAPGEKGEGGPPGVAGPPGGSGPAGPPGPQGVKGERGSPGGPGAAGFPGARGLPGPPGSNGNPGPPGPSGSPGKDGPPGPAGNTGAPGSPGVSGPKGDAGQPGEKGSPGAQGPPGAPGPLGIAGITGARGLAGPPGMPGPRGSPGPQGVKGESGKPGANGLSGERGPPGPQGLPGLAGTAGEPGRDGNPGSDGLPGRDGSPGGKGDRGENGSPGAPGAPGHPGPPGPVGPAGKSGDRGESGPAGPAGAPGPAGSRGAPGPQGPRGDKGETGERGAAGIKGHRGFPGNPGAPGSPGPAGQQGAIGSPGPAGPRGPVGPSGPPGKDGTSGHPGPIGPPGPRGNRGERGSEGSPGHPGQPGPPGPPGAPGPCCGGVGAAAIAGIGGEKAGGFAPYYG

[8] = target: Soluble human collagen type IV (human, UniProt P02462 173-1669; P08572 184-1712); test: as above; details: both partners purified
[9] = target: T2, Soluble human collagen type III; test: SPR; kinetics: collagen type I or III immobilised on CM5 by amine coupling, Simplagrin as analyte (0.015-1 µM), 180 s contact at 30 µL/min, 25°C, HBS-P, 1:1 Langmuir model; details: both partners purified
[10] = target: T1, Soluble human collagen type I; test: as above; details: both partners purified
[11] = target: T2, Soluble human collagen type III; test: ELISA; blocking: collagen type III (0.3 µg/mL) coated, Simplagrin 0.0015-1.5 µM for one hour at 37°C, washed, then 3 nM vWF; detected with anti-human vWF; details: both partners purified
[12] = target: T1, Soluble human collagen type I; test: SPR; thermodynamics: Simplagrin (10-500 nM) over immobilised collagen type I or III at 15, 20, 25, 30, 35 and 40°C; 1:1 model, van't Hoff equation; details: both partners purified
[13] = target: T2, Soluble human collagen type III; test: as above; details: both partners purified

T1 sequence (P02452 162-1218, chain 1 of 2): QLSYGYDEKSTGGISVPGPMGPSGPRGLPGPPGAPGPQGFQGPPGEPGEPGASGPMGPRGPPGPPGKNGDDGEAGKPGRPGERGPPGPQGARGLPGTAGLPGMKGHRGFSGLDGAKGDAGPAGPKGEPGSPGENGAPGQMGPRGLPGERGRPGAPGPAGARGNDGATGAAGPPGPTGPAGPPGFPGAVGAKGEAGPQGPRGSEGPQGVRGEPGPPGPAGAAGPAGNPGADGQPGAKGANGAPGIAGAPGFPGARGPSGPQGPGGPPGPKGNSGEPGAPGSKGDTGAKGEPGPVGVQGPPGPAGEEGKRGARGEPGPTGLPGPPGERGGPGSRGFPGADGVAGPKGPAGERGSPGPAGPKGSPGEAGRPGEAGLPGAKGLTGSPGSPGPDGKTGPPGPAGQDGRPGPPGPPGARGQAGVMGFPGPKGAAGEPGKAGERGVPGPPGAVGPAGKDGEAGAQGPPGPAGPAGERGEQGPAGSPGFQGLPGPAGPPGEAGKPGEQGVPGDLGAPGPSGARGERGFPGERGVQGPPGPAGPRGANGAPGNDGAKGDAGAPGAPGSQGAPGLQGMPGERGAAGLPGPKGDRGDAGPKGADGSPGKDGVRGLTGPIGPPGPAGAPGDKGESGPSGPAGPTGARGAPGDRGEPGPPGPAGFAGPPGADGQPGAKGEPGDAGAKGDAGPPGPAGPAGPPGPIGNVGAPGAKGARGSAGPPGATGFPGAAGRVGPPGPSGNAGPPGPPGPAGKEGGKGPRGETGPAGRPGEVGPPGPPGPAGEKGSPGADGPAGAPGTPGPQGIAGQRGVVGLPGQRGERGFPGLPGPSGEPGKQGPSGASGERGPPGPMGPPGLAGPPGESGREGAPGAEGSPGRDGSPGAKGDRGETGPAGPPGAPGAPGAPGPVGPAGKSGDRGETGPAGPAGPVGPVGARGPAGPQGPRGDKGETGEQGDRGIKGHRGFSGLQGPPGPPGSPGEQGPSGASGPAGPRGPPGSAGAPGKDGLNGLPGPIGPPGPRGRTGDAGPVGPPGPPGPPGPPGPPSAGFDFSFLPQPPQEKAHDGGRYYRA
T1 sequence (P08123 80-1119, chain 2 of 2): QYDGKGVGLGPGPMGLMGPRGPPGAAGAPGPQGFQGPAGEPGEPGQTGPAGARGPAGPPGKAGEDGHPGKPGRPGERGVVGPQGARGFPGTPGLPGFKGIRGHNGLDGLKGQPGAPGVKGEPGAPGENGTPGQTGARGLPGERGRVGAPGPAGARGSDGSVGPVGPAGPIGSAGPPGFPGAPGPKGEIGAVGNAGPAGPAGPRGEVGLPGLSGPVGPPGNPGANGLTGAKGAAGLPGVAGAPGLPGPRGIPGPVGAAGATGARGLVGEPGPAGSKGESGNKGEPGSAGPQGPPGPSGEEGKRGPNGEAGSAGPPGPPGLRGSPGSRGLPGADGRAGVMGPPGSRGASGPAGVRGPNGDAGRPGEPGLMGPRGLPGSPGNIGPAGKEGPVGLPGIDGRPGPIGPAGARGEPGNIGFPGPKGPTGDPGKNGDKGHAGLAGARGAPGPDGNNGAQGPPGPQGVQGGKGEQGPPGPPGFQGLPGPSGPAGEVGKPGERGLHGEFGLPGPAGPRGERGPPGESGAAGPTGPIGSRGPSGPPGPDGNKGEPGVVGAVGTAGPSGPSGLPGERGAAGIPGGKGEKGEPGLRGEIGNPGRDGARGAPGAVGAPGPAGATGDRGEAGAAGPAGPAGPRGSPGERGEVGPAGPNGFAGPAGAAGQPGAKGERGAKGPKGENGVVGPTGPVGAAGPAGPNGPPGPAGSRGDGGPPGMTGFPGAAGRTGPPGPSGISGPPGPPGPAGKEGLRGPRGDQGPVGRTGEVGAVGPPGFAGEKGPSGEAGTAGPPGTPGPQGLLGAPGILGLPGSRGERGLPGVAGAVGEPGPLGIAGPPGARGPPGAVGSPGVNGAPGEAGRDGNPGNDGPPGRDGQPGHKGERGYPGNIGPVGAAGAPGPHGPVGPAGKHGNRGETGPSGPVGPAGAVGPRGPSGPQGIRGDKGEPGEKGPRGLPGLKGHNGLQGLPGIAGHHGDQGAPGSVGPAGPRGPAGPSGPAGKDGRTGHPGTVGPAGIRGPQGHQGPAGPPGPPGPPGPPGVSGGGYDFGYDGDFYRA
Sequence of Soluble human collagen type I (human) (P02452 162-1218, chain 1 of 2): as the sequence (P02452 162-1218, chain 1 of 2) above
Sequence of Soluble human collagen type I (human) (P08123 80-1119, chain 2 of 2, further chain): as the sequence (P08123 80-1119, chain 2 of 2) above

## RGQOGVMGF collagen-derived peptide (vWF-recognition peptide)
[1]
  Kd: 11.1 nM
  koff: 0.00048 s⁻¹
  kon: 727000 M⁻¹ s⁻¹

## Collagen type I from rat tail (from UniProt P02454 23-1207; P02466 86-1125) (natural protein)
[2]
  Kd: 12.4 nM

## Soluble human collagen type V (from UniProt P20908 38-1605; P05997 27-1229) (natural protein)
[2]
  Kd: 10.8 nM

## Simplagrin carboxy-terminus domain (Simplagrin-CT) (domain or fragment)
[3]
  Kd: 162 nM
[4]
  Kd: 285 nM

B1: Simplagrin (Simulium platelet aggregation inhibitor), recombinant (natural protein, Simulium nigrimanum, UniProt D1FQ14 21-286, looked up)
chain: SPIPDEESEETEDAEQEEDAEEEEHAEEEAQEDGDQTQDTDQESDDGQEETANQGSDEQQEEDGSHGTDETDDEAAGSRTEDVESGGDEQNDGEENGSQENGEEVTGGEDDSHGAQDSEGGEEDAAAQEAGGKKSKGKGAKGGQGSNRAGSSSGGEESAAHTYQEVMRILNGIKINAKEPLKSRLVNGLQYLKVDTINRVENIQKFSRIEHCFGNLDHIVQLYAGDAVERNDYCKGTCIDMVSNEFRGQMEELTSRLYPCLQGGYY
notes: Simplagrin (cluster Sim-50), salivary gland protein of Simulium nigrimanum; precursor of 286 aa with a predicted signal peptide of 20 aa; the construct holds the mature protein and a 6X-His tag before the stop codon; Synthetic codon optimised gene in the VR2001 TOPO vector; also called Sim-50; recombinant Simplagrin; source: FreeStyle293 F (HEK293) cells, transfected, secreted; purified (Ni2+ …)
[5]
  Kd: 23.3 nM
[6]
  Kd: 10.3 nM
[7]
  Kd: 9.72 nM
[8]
  Kd: 27.6 nM
[9]
  Kd: 2.1 nM
  koff: 0.00031 s⁻¹
  kon: 148000 M⁻¹ s⁻¹
[10]
  Kd: 5.51 nM
[11]
  IC50: ~100 nM
[12]
  dH: -4.54 kcal/mol
[13]
  dH: -12.9 kcal/mol

— paper PMC4055580, “Simplagrin, a Platelet Aggregation Inhibitor from Simulium nigrimanum Salivary Glands Specifically Binds to the Von Willebrand Factor Receptor in Collagen and Inhibits Carotid Thrombus Formation In Vivo” (PLoS Neglected Tropical Diseases, 2014)
